Consider 2 molecules from patent publication US20040123349A1 (published 2004).

One data set deals with T1, MBP-SINAT5.
T1 sequence: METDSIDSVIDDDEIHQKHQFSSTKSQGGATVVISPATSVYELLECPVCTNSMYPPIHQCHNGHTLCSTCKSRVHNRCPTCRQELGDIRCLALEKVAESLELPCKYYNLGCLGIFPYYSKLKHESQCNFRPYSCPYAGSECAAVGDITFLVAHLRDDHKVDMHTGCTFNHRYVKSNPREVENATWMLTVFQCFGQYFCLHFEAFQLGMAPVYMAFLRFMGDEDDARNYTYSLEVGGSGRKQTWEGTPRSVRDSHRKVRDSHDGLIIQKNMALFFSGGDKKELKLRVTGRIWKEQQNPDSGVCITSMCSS

The next data set addresses T2, Myc-NAC1 (Arabidopsis, UniProt Q84TE6 1-324).
T2 construct: Product of the 35S-6xMyc-NAC1 transgene in Arabidopsis thaliana; immunoprecipitated with anti-Myc antibody; also called 6xMyc-NAC1; Myc-tagged NAC1; not shown: 6xMyc tag
T2 sequence (looked up): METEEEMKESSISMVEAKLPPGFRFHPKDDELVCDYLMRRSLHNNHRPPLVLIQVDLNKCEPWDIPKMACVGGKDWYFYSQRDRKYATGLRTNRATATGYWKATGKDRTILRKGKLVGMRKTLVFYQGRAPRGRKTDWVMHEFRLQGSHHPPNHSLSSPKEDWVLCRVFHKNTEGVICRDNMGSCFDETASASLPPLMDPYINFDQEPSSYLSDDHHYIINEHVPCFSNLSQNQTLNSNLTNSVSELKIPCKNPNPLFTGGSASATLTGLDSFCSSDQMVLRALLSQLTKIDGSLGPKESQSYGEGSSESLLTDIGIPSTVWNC
The data set can be described thus: immunoprecipitation with anti-Myc from roots of double transgenic plants, Western blot with anti-SINAT5. As to the method:
Western and Northern blot analyses. Antibody to SINAT5 was raised in rabbits using as an antigen the synthetic […] peptide […] (SEQ ID NO:5) corresponding to amino acid residues 3 to 18 of SINAT5 polypeptide (SEQ ID NO:1). Antibodies to c-Myc (SC40 and SC40-AC) and actin (SC1616) from Santa Cruz Biotechnology were used for immunoprecipitation and/or Western blotting. Each lane contained 10 or 20 μg protein. RNA extraction was performed by RNeasyR Plant Mini kit (Qiagene). Northern blot analysis was described previously²⁰, using as probes a NAC1 cDNA fragment encoding the NAC1 C-terminal region (amino acid 200 to 324) and a SINAT5-specific EcoRI-NdeI fragment. The 18S rRNA was used as a loading control. Each lane contained 10 μg RNA.
SINAT5 affect on expression of NAC1 in roots. Referring now to FIG. 4, there is shown the relationship between SINAT5 and NAC1 expression levels in transgenic plants. […] Root cultures from a myc-NAC1 transgenic line were treated with 50 μM of proteasome inhibitor MG 132 (+) or DMSO (−) for 3 hr. Protein extracts were processed for Western blot analysis. […] Myc-tagged proteins from roots of double transgenic plants were immunoprecipitated with antibodies specific for Myc and processed for Western blot analysis with antibodies specific for SINAT5. […] Total RNAs from the same transgenic lines were analyzed by Northern blot. […]

The next data set deals with T3, Myc-NAC1, Q84TE6.
T3 chain: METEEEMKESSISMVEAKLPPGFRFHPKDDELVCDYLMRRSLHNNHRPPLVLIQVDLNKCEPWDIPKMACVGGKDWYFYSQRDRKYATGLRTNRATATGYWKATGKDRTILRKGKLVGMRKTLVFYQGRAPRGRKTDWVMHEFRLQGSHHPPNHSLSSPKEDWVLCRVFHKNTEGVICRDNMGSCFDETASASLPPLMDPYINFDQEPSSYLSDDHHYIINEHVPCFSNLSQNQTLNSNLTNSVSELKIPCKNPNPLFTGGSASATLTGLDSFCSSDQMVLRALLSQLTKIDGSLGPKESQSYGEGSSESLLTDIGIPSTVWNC

For the molecule MBP-SINAT5 (C49S) mutant, the “self-ubiquitylation activity (E3 activity) of WT SINAT5, in vitro ubiquitylation assay” value with MBP-SINAT5 was “the C49S mutant protein was able to inhibit the self-ubiquitylation activity of the WT SINAT5 when present at a 5-10 fold excess”.

B1: SINAT5 (wildtype) (enzyme)
chain: METDSIDSVIDDDEIHQKHQFSSTKSQGGATVVISPATSVYELLECPVCTNSMYPPIHQCHNGHTLCSTCKSRVHNRCPTCRQELGDIRCLALEKVAESLELPCKYYNLGCLGIFPYYSKLKHESQCNFRPYSCPYAGSECAAVGDITFLVAHLRDDHKVDMHTGCTFNHRYVKSNPREVENATWMLTVFQCFGQYFCLHFEAFQLGMAPVYMAFLRFMGDEDDARNYTYSLEVGGSGRKQTWEGTPRSVRDSHRKVRDSHDGLIIQKNMALFFSGGDKKELKLRVTGRIWKEQQNPDSGVCITSMCSS
notes: GenBank AF480944 is printed for the gene; also called WT SINAT5; SINA of Arabidopsis thaliana 5
For B1, in the data set with Myc-NAC1, the binding result is given as “binds”. Further, the “in vitro ubiquitylation of myc-NAC1 immunopurified from transgenic plants (Western blot)” value in the data set with Myc-NAC1, Q84TE6 is “myc-NAC1 can be ubiquitylated by SINAT5 and this reaction is clearly dependent on E1, E2, and SINAT5 as an E3 ligase”.
